In the Immune Epitope Database (IEDB) one finds Kd data, which are given here for 37 sequences.

Bounds are passed on as bounds.

Among the targets are HLA-A*02:02; HLA-A*02:06; HLA-A*02:03.
What all share (assay): IEDB peptide-MHC binding, purified MHC/competitive/radioactivity; filed as Kd, often an IC50 or EC50 that approximates it; ≥ and ≤ were set here for values at or beyond the usual limits of such assays
Setting [1] is: source organism: Vaccinia virus WR.
[2] abbreviates: source organism: SARS coronavirus Tor2.
[3] abbreviates: source organism: Dengue virus 1 Brazil/97-11/1997.
Setting [4] is: source organism: Mammarenavirus juninense.

One may read the Kd as a measure of binding affinity in units of concentration. Consider AAKTPVIVV, for which the equilibrium dissociation constant (Kd) is 1.36 µM in the assay with HLA-A*02:02 (setting [1]), at least 25.4 µM with HLA-A*02:06 (setting [1]) and 1.63 µM in the assay with HLA-A*02:03 (setting [1]).
The like results for AARLKRSAT were, in that order, 12.5 µM, at least 63.4 µM and 10.5 µM.
In the case of AIMTRCLAV, the results for the Kd in the assay with HLA-A*02:02 (setting [2]), in the assay with HLA-A*02:06 (setting [2]) and in the assay with HLA-A*02:03 (setting [2]) were 0.0515 µM, 0.0268 µM and 0.0147 µM, respectively.
Consider AINKCVDIFT, for which the equilibrium dissociation constant (Kd) with HLA-A*02:02 (setting [1]) was at least 25.3 µM; with HLA-A*02:06 (setting [1]), at least 38.6 µM; with HLA-A*02:03 (setting [1]), at least 26.4 µM.
For ALCESITLA, the Kd with HLA-A*02:03 (setting [3]) was 0.0173 µM.
For the sequence ALKNSQAELT, the dissociation constant Kd in the assay with HLA-A*02:02 (setting [1]) was 2.12 µM; with HLA-A*02:06 (setting [1]), at least 27.2 µM; with HLA-A*02:03 (setting [1]), 0.98 µM.
ALMTLDDLAI: the dissociation constant Kd is 0.0142 µM with HLA-A*02:02 (setting [1]), 0.0241 µM with HLA-A*02:06 (setting [1]) and 0.0293 µM with HLA-A*02:03 (setting [1]).
For the sequence AVYFKAKWLT, the figures for the Kd in the assay with HLA-A*02:02 (setting [1]), with HLA-A*02:06 (setting [1]) and with HLA-A*02:03 (setting [1]) were at least 27.2 µM, 8.71 µM and 8.93 µM, respectively.
The like results for CLLTDTIESA were, in that order, 0.053 µM, 0.0921 µM and 0.102 µM.
CNYTKFWYV: the Kd was determined as 1.94 µM with HLA-A*02:02 (setting [4]), 0.0345 µM in the assay with HLA-A*02:06 (setting [4]) and 0.794 µM in the assay with HLA-A*02:03 (setting [4]).
CTEETKRNI: the equilibrium dissociation constant (Kd) in the assay with HLA-A*02:02 (setting [1]) is at least 77.8 µM; with HLA-A*02:06 (setting [1]) it was at least 77.1 µM; with HLA-A*02:03 (setting [1]), at least 78.1 µM.
The like results for CVKYLLDNDI were, in that order, at least 31.8 µM, 7.58 µM and 5.67 µM.
For the sequence DIMLPESDL, the results for the equilibrium dissociation constant (Kd) with HLA-A*02:02 (setting [1]), with HLA-A*02:06 (setting [1]) and with HLA-A*02:03 (setting [1]) were 18.5 µM, at least 31.6 µM and at least 35.8 µM, respectively.
DIRDKYMEL: the equilibrium dissociation constant (Kd) is at least 24.3 µM with HLA-A*02:02 (setting [1]), 14.5 µM with HLA-A*02:06 (setting [1]) and 3.86 µM with HLA-A*02:03 (setting [1]).
On to DMDFDLNIFM, for which the Kd in the assay with HLA-A*02:02 (setting [1]) is 1.15 µM; with HLA-A*02:06 (setting [1]) it was 5.31 µM; in the assay with HLA-A*02:03 (setting [1]), at least 5 µM.
The like results for ETAIRAGYSI were, in that order, at least 25.8 µM, 17.8 µM and at least 29.3 µM.
Taken in the same sequence, the figures for ETIEILRNYL were 0.474 µM, 0.000276 µM and 1.41 µM.
Turning to EVIGLTTHCT, the equilibrium dissociation constant (Kd) with HLA-A*02:02 (setting [1]) turned out to be 10.5 µM; with HLA-A*02:06 (setting [1]), 12.2 µM; with HLA-A*02:03 (setting [1]), 14.9 µM.
FLAFVVFLLV: the Kd was 0.00236 µM with HLA-A*02:02 (setting [2]), 2.98 µM in the assay with HLA-A*02:06 (setting [2]) and 0.211 µM with HLA-A*02:03 (setting [2]).
On to FLARKGIDT, for which the Kd with HLA-A*02:02 (setting [1]) turned out to be 1.02 µM; with HLA-A*02:06 (setting [1]), 3.04 µM; in the assay with HLA-A*02:03 (setting [1]), 0.318 µM.
The like results for FTSYKRFVT were, in that order, 2.33 µM, 12.4 µM and 3.38 µM.
Turning to GANGSTAEQL, the dissociation constant Kd with HLA-A*02:02 (setting [1]) is 7.28 µM; with HLA-A*02:06 (setting [1]), at least 55.4 µM; with HLA-A*02:03 (setting [1]), at least 45.3 µM.
Regarding GLAFSIMKSV, the Kd with HLA-A*02:03 (source organism: Dengue virus 3 Martinique/1243/1999) turned out to be 0.0116 µM.
For GLDERFVEEL, the Kd in the assay with HLA-A*02:02 (setting [1]) stood at 0.093 µM; in the assay with HLA-A*02:06 (setting [1]), 2.52 µM; in the assay with HLA-A*02:03 (setting [1]) it was 1.21 µM.
With GLKALYETEL, in the assay with HLA-A*02:06 (source organism: Homo sapiens), the dissociation constant Kd was at least 71.2 µM.
Regarding GLSDRVVFV, the Kd with HLA-A*02:02 (setting [2]) was 0.00104 µM; with HLA-A*02:06 (setting [2]), 0.0686 µM; with HLA-A*02:03 (setting [2]), 0.00107 µM.
Take GLSSGFYFEI: the equilibrium dissociation constant (Kd) with HLA-A*02:02 (setting [1]) was 0.0483 µM; with HLA-A*02:06 (setting [1]) it was 1.73 µM; in the assay with HLA-A*02:03 (setting [1]) it was 0.782 µM.
HVLGRLITV: the dissociation constant Kd with HLA-A*02:06 (source organism: Dengue virus 2 Jamaica/1409/1983) amounted to 0.00884 µM.
Take IIYSKAGNIL: the Kd with HLA-A*02:02 (setting [1]) amounted to 0.00848 µM; with HLA-A*02:06 (setting [1]), 0.342 µM; with HLA-A*02:03 (setting [1]), 0.11 µM.
As to ILKDPRIASI, the Kd with HLA-A*02:02 (setting [1]) was determined as 3.16 µM; with HLA-A*02:06 (setting [1]) it was 4 µM; with HLA-A*02:03 (setting [1]) it was 1.03 µM.
As to IMKDGREIV, in the assay with HLA-A*02:03 (setting [3]), the dissociation constant (Kd) turned out to be 0.11 µM.
On to ITRLEVIGL, for which the dissociation constant (Kd) with HLA-A*02:02 (setting [1]) was 5.51 µM; with HLA-A*02:06 (setting [1]), 0.776 µM; in the assay with HLA-A*02:03 (setting [1]) it was 0.213 µM.
In the case of IVAALVFLI, the Kd in the assay with HLA-A*02:02 (setting [2]) was 0.000138 µM; with HLA-A*02:06 (setting [2]), 0.00181 µM; in the assay with HLA-A*02:03 (setting [2]), 0.0155 µM.
Turning to IVNNFITKEI, the Kd with HLA-A*02:02 (setting [1]) turned out to be 1.47 µM; with HLA-A*02:06 (setting [1]), 14.2 µM; in the assay with HLA-A*02:03 (setting [1]) it was 0.192 µM.
Taken in the same sequence, the figures for KTANNYETI were 0.0372 µM, 0.329 µM and 0.0385 µM.
Turning to KTRLFRSPQV, the dissociation constant (Kd) with HLA-A*02:02 (setting [1]) is 9.27 µM; in the assay with HLA-A*02:06 (setting [1]) it was 0.433 µM; with HLA-A*02:03 (setting [1]), 0.984 µM.
LAFVVFLLV: the Kd with HLA-A*02:02 (setting [2]) was 0.458 µM; in the assay with HLA-A*02:06 (setting [2]), 0.253 µM; in the assay with HLA-A*02:03 (setting [2]), 1.27 µM.
